Assay results from EP1272205B1 (The Johns Hopkins University, dated 2013).

Experiments:
[1] = target: SAF-2 on cells (human eosinophils, basophils, cord blood-derived mast cells; HEK293 cells transfected with full length SAF-2) (human) (UniProt Q9NYZ4); experiment: indirect immunofluorescence flow cytometry on human basophils
[2] = target: T1, SAF-2 polypeptide (extracellular domain of sialoadhesin factor-2, released from SAF-2/Fc with Factor Xa) (human, UniProt Q9NYZ4 17-363); experiment: BIAcore SPR; mAb captured on rabbit anti-mouse IgG Fc surface, SAF-2 injected
T1 construct: extracellular domain; The BIAcore paragraph says only 'SAF-2 (diluted in HBS buffer)'; also called Siglec-8

[3] = target: T1, SAF-2 polypeptide (extracellular domain …); experiment: BIAcore SPR; mAb captured on rabbit anti-mouse IgG Fc surface, SAF-2 injected; calculated from rates

T1 sequence (Q9NYZ4 17-363): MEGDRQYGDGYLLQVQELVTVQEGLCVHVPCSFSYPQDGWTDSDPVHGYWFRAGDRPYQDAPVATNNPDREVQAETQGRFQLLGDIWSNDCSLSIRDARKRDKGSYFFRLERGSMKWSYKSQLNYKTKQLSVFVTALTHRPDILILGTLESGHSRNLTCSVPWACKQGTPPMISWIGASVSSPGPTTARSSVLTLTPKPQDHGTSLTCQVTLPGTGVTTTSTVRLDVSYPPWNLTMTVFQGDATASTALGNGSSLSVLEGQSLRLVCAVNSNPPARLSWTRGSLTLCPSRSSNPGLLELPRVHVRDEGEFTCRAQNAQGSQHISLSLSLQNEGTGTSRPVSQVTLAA
Sequence of SAF-2 on cells (human eosinophils, basophils, cord blood-derived mast cells; HEK293 cells transfected with full length SAF-2) (human) (Q9NYZ4 17-499): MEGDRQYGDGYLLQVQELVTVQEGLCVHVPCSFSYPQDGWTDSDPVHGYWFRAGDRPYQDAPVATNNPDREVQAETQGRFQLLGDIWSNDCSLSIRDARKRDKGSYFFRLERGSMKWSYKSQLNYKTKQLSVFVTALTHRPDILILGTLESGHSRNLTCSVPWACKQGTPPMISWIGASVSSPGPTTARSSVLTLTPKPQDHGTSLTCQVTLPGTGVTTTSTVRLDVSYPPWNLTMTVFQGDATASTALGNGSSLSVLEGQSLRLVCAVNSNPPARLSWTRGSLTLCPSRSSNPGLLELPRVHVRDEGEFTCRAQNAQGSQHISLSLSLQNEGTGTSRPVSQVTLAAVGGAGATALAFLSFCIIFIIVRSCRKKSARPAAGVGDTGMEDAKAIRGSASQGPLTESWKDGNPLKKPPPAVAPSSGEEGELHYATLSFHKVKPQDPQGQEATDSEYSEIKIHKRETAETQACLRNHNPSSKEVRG

percent positive (percent positive) [1]: 21.1
koff [2]: 4.3e-05 s⁻¹
kon [2]: 220000 M⁻¹ s⁻¹
Kd [3]: 0.2 nM
B1: monoclonal antibody 2C4 (antibody, V domains shown)
VH: QVQLKESGPGLVAPSQSLSITCTVSGFSLIYGAHWVRQPPGKGLEWLGVIWAGGSTNYNSALMSRLSISKDNSKSQVFLKINSLQTDDTALYYCARDGSSPYYYSMEYWGQGTSVTVSS
VL: EIILTQSPAIMSASPGEKVSITCSATSSVSYMHWFQQKPGTSPKLWIYSTSNLASGVPVRFSGSGSGTSYSLTISRMEAEDAATYYCQQRSSYPFTFGSGTKLEIKR
notes: also called mAb 2C4
